Results from patent US20030077318A1 (Scripps Research, published 2003).

Molecular target: T1, VSV-7 (Vesicular stomatitis virus)
T1 construct: also called GYVYQGL
Assay: competitive RIA against [^125I]VSV-8 on K^bsol, P30 gel filtration, 23° C.

B1: soluble H-2K^b (K^bsol), heterodimer of truncated K^b heavy chain and murine β-2 microglobulin, purified empty from Drosophila cells (other)
alpha: GPHSLRYFVTAVSRPGLGEPRYMEVGYVDDTEFVRFDSDAENPRYEPRARWMEQEGPEYWERETQKAKGNEQSFRVDLRTLLGYYNQSKGGSHTIQVISGCEVGSDGRLLRGYQQYAYDGCDYIALNEDLKTWTAADMAALITKHKWEQAGEAERLRAYLEGTCVEWLRRYLKNGNATLLRTDSPKAHVTHHSRPEDKVTLRCWALGFYPADITLTWQLNGEELIQDMELVETRPAGDGTFQKWASVVVPLGKEQYYTCHVYHQGLPEPLTLRW
b2m: IQKTPQIQVYSRHPPENGKPNILNCYVTQFHPPHIEIQMLKNGKKIPKVEMSDMSFSKDWSFYILAHTEFTPTETDTYACRVKHASMAEPKTVYWDRDM
notes: also called H-2K^b Sol; soluble K^b
Kd: 53 nM
